Data set [1] has as its target T1, Hs-laforin (Homo sapiens, UniProt O95278).
T1 sequence (O95278 1-331): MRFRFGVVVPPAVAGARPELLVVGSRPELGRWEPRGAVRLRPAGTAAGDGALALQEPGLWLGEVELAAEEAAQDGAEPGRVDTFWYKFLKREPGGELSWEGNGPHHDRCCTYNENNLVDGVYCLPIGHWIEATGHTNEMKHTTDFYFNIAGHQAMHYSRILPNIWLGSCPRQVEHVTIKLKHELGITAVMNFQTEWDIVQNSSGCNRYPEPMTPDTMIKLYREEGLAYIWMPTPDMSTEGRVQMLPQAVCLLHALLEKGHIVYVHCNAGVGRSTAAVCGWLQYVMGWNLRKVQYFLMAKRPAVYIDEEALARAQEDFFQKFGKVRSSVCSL
The data set is described as follows: p-NPP hydrolysis, absorbance at […] nm. The data set is classed as biochemical. As to conditions: pH 5.5; 37°C; 2 mM DTT; artificial substrate.

Substrate in data set [2]: O=[N+]([O-])c1ccc(OP(=O)(O)O)cc1
The data set is described as follows: purified protein. As to conditions: pH 6.0, 37°C, 2 mM DTT, artificial substrate.

Broadly, the Km is the concentration of substrate that gives half-maximal velocity. By Vmax is commonly meant the rate approached at saturating substrate. For orientation: kcat means the maximal rate divided by the concentration of active sites. As a reminder, the kcat/Km is the turnover number divided by the Michaelis constant.

In the case of `O=[N+]([O-])c1ccc(OP(=O)(O)O)cc1` [p-NPP], the Km in data set [1] worked out at 323 µM.

B1: Δ52-SEX4 (Arabidopsis thaliana) (protein)
chain: AVSESKSSSEMSGVAKDEEKSDEYSQDMTQAMGAVLTYRHELGMNYNFIRPDLIVGSCLQTPEDVDKLRKIGVKTIFCLQQDPDLEYFGVDISSIQAYAKKYSDIQHIRCEIRDFDAFDLRMRLPAVVGTLYKAVKRNGGVTYVHCTAGMGRAPAVALTYMFWVQGYKLMEAHKLLMSKRSCFPKLDAIRNATIDILTGLKRKTVTLTLKDKGFSRVEISGLDIGWGQRIPLTLDKGTGFWILKRELPEGQFEYKYIIDGEWTHNEAEPFIGPNKDGHTNNYAKVVDDPTSVDGTTRERLSSEDPELLEEERSKLIQFLETCSEAEV
As for B1, in data set [2], the Km stood at 410 µM, the Vmax worked out at 2.41 µmol/min/mg, the kcat was determined as 1.54 s⁻¹ and the kcat/Km amounted to 3756 M⁻¹ s⁻¹.

Values taken from paper PMC2064834 (The Journal of Cell Biology, 2007).
